Common to all, as to test: cell-based or functional assay
One test concerns the target cynomolgus monkey GLP1R (cynomolgus monkey, UniProt F8V479 24-463).
The target of another test is T1, mouse GLP1R (mouse, UniProt O35659 22-463).
T1 sequence (looked up): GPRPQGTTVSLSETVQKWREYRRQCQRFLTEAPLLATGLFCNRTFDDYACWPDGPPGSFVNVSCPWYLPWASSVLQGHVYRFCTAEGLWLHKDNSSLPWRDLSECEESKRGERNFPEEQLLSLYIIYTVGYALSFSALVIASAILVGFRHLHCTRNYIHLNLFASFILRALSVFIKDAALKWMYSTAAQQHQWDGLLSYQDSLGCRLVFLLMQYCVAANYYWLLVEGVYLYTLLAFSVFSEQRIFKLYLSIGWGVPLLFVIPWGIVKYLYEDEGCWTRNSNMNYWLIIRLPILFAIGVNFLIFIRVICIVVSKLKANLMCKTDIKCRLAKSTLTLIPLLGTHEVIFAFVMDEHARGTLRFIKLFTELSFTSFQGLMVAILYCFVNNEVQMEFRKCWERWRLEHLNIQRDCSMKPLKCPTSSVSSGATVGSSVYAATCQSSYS

A further test has as its target T2, mouse GIPR (mouse, UniProt Q0P543 19-460).
T2 sequence (looked up): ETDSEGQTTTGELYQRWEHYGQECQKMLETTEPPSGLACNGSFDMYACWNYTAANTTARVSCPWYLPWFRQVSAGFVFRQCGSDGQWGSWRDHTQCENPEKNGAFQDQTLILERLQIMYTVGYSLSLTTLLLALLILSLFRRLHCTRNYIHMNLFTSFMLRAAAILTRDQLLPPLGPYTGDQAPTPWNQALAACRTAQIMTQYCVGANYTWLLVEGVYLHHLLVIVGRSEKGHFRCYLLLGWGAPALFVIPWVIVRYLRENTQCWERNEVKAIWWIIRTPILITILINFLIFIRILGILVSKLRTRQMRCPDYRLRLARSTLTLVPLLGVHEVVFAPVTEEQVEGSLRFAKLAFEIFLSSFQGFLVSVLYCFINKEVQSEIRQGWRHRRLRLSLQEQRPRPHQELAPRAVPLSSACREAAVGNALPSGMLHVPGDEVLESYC

The target in another test is T3, dog GLP1R (dog, UniProt A0A8I3NUR9 25-464).
T3 sequence: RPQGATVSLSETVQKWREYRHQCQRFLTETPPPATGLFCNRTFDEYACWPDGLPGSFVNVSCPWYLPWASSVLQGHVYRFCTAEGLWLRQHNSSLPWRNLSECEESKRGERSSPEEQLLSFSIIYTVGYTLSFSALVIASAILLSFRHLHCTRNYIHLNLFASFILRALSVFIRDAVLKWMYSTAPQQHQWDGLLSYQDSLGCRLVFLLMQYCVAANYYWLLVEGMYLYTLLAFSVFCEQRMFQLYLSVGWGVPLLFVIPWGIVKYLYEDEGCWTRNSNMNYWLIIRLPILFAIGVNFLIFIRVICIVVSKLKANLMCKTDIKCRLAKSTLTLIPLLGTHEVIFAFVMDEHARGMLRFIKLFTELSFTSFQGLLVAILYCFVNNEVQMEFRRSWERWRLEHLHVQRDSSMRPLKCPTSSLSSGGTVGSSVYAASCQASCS

Another test addresses T4, cynomolgus monkey GIPR (cynomolgus monkey, UniProt A0A2K5VD75 22-466).
T4 sequence: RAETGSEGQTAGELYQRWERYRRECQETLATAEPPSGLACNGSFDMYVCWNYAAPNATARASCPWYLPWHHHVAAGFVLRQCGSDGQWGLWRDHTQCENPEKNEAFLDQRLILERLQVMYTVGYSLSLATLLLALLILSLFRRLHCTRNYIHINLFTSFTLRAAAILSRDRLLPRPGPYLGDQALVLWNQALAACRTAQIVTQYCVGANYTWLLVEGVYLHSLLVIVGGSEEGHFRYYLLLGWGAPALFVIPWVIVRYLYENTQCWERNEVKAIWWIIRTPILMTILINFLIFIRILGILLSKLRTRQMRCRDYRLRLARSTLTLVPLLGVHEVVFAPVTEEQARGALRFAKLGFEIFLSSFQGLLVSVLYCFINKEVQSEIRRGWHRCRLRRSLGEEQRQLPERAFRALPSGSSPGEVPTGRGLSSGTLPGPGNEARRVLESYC

Test [1] deals with T5, human GIP receptor (human, UniProt P48546 22-466).
T5 sequence (looked up): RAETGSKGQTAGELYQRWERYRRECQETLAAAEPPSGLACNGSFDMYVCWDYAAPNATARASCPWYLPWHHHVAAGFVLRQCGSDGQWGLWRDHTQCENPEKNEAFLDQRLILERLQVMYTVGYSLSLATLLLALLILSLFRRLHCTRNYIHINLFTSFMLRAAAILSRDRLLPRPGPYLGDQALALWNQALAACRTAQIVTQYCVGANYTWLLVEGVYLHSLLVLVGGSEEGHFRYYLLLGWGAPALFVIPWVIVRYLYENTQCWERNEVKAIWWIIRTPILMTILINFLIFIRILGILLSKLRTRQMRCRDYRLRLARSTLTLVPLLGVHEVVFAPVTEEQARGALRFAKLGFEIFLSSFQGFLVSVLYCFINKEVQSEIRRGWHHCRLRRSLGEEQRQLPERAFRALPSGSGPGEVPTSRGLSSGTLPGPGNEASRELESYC

In test [2] the target is T6, human GLP-1 receptor (human, UniProt P43220 24-463).
The target in test [3] is T5, human GIP receptor. The source holds these as a separate data set.
The target in test [4] is T6, human GLP-1 receptor. The source holds these as a separate data set.
Test [5] has as its target T5, human GIP receptor. This is another data set of the same source.
For test [6], the target named is T6, human GLP-1 receptor. The source holds these as a separate data set.
The target in test [7] is T6, human GLP-1 receptor. The source holds these as a separate data set.
In test [8] the target is T5, human GIP receptor. The source holds these as a separate data set.
A further test addresses dog GIPR (dog).
The target in test [9] is T5, human GIP receptor. This is another data set of the same source.

Read-outs that look alike come from different tables or passages of the source. Bridge positions count the residues as written; N and C are the ends. Square brackets hold non-standard residues; d marks the D form. Ends that are not written are not given here. C20L5A = not defined here; L5A(S) = not defined here; Aib = CC(C)(N)C(=O)O

B1: mCMV268 (27I, C(17-24)-C20L5A) (peptide)
peptide: Y[Aib]EGTFTSDYSIYLDKCAA[Aib]EFVCWLIAGGPSSGAPPPS-NH2
modifications: linker 17-24 via C20L5A; not fully specified; reading uncertain
As to B1, the “In Vitro Potency GLP1R EC50 [nM], Cyno” value with cynomolgus monkey GLP1R came out at 0.22 nM. In addition, the “In Vitro Potency GLP1R EC50 [nM], Mouse” value in the test with mouse GLP1R stood at 0.26 nM. Besides, in the test with mouse GIPR, the “In Vitro Potency GIPR EC50 [nM], Mouse” value was 0.26 nM. Also, the “In Vitro Potency GLP1R EC50 [nM], Dog” value with dog GLP1R amounted to 1.48 nM. Moreover, the “In Vitro Potency GIPR EC50 [nM], Cyno” value with cynomolgus monkey GIPR was 0.16 nM. Besides, in the test with human GIP receptor [1], the “EC50 of receptor-mediated cAMP synthesis, GIPR (nM), 02/19” value came out at 0.05 nM; the “EC50 of receptor-mediated cAMP synthesis, GIPR (nM), 03/25” value was 0.04 nM; the “EC50 of receptor-mediated cAMP synthesis, GIPR (nM), 03/26” value was found to be 0.03 nM; the “EC50 of receptor-mediated cAMP synthesis, GIPR (nM), average” value came to 0.04 nM.

B2: mCMD307 (2050-K4) (peptide)
peptide: Y[Aib]EGTFTSDYSIYKDKQAA[Aib]KFVNWLLAGGPSSGAPPPS-NH2
modifications: bridge 14-21; not fully specified (bridges); also: K4 staple carries PEG-fatty acid
As to B2, in the test with human GLP-1 receptor [2], the “EC50 [nM] of receptor-mediated cAMP synthesis” value is 0.03 nM. Further, the “EC50 [nM] of receptor-mediated cAMP synthesis” value with human GIP receptor [3] was 0.01 nM. Further, the “EC50 [nM] of receptor-mediated cAMP synthesis” value with human GLP-1 receptor [4] amounted to 0.03 nM. The “EC50 [nM] of receptor-mediated cAMP synthesis” value with human GIP receptor [5] turned out to be 0.01 nM. For the same molecule, in the test with human GLP-1 receptor [6], the “EC50 of receptor-mediated cAMP synthesis, GLP1R (nM), 02/19” value worked out at 0.01 nM; the “EC50 of receptor-mediated cAMP synthesis, GLP1R (nM), 3/25” value came to 0.01 nM; the “EC50 of receptor-mediated cAMP synthesis, GLP1R (nM), 03/26” value was 0.01 nM; the “EC50 of receptor-mediated cAMP synthesis, GLP1R (nM), average” value worked out at 0.01 nM. Moreover, in the test with human GIP receptor [1], the “EC50 of receptor-mediated cAMP synthesis, GIPR (nM), 02/19” value worked out at 0.04 nM; the “EC50 of receptor-mediated cAMP synthesis, GIPR (nM), 03/25” value was 0.01 nM; the “EC50 of receptor-mediated cAMP synthesis, GIPR (nM), 03/26” value stood at 0.01 nM; the “EC50 of receptor-mediated cAMP synthesis, GIPR (nM), average” value was 0.02 nM. Besides, in the test with human GLP-1 receptor [7], the “EC50 [nM] of receptor-mediated cAMP synthesis” value was 0.01 nM. In the test with human GIP receptor [8], the “EC50 [nM] of receptor-mediated cAMP synthesis” value stood at 0.02 nM.

B3: wild-type human GIP (ligand)
peptide: YAEGTFISDYSIAMDKIHQQDFVNWLLAQKGKKNDWKHNITQ-NH2
Take B3: in the test with dog GIPR, the “In Vitro Potency GIPR EC50 [nM], Dog” value amounted to 0.7 nM. Besides, the “In Vitro Potency GIPR EC50 [nM], Cyno” value in the test with cynomolgus monkey GIPR stood at 0.69 nM.

B4: mCMZ371 (C(17-24)-L5A(S)) (peptide)
peptide: Y[Aib]EGTFTSDYSIYLDKCAA[Aib]EFVCWLIAGGPSSGAPPPS-NH2
modifications: linker 17-24 via L5A(S); not fully specified; reading uncertain
Turning to B4, the “In Vitro Potency GIPR EC50 [nM], 10% FBS” value in the test with human GIP receptor [9] was 0.04 nM. Moreover, the “In Vitro Potency GLP1R EC50 [nM], Cyno” value with cynomolgus monkey GLP1R came out at 0.11 nM. The “In Vitro Potency GIPR EC50 [nM], Dog” value with dog GIPR was found to be 0.47 nM. For the same molecule, the “In Vitro Potency GIPR EC50 [nM], Mouse” value with mouse GIPR came to 0.27 nM. Moreover, in the test with dog GLP1R, the “In Vitro Potency GLP1R EC50 [nM], Dog” value came to 1.34 nM.
